In patent publication US20230360747A1:

Target: SARS-CoV-2 RBD (40592-VO8H, Sino Biological), Alexa Fluor 647 labelled (SARS-CoV-2) (UniProt P0DTC2)

Q: With “SARS-CoV-2 (2019-nCoV) spike antibody (40150-R007, Sino Biological)” as the substance, how does the Kd read?
A: The Kd was 9.6 nM.
